{"source": "paper PMC3762362", "about": "“Three-color single molecule imaging shows WASP detachment from Arp2/3 complex triggers actin filament branch formation” (eLife, 2013)", "binders": {"B1": {"name": "Cy3-diVCA wild-type (N-WASP VCA covalently dimerized with a Cy3 bis-maleimide) (domain or fragment)", "chain": "CGGSGGSGGSGGSSGRDALLDQIRQGIQLKSVADGQESTPPTPAPTSGIVGALMEVMQKRSKAIHSSDEDEDEDDEEDFEDDDEWED", "modifications": "Cy3 bis-maleimide (BMCy3) crosslinks the single Cys of the N-terminal extension of the two chains", "notes": "extension appended at the N-terminus; its Cys reacts with the Cy3 bis-maleimide; human N-WASP VCA, residues 432-505 (second WH2 motif (V) through the C-terminus); Covalent dimer; also called diVCA w.t; wild-type diVCA; source: E. coli BL21(DE3) T1R, purified (DEAE, Glutathione Sepharose, TEV cleavage, SOURCE 15Q, Superdex 200); not shown: GST, N-terminal, cleaved"}, "B2": {"name": "Cy3-diVCA-C* (I467A) (domain or fragment)", "chain": "CGGSGGSGGSGGSSGRDALLDQIRQGIQLKSVADGQESTPPTPAPTSGAVGALMEVMQKRSKAIHSSDEDEDEDDEEDFEDDDEWED", "modifications": "Cy3 bis-maleimide (BMCy3) crosslinks the single Cys of the N-terminal extension of the two chains", "notes": "extension appended at the N-terminus; its Cys reacts with the Cy3 bis-maleimide; human N-WASP VCA, residues 432-505, mutated in the C-region; Covalent dimer; same design as m1; also called C* mutant; source: E. coli BL21(DE3) T1R, purified (DEAE, Glutathione Sepharose, TEV cleavage, SOURCE 15Q, Superdex 200); not shown: GST, N-terminal, cleaved"}, "B3": {"name": "Cy3-diVCA-V* (D435S/A436D) (domain or fragment)", "chain": "CGGSGGSGGSGGSSGRSDLLDQIRQGIQLKSVADGQESTPPTPAPTSGIVGALMEVMQKRSKAIHSSDEDEDEDDEEDFEDDDEWED", "modifications": "Cy3 bis-maleimide (BMCy3) crosslinks the single Cys of the N-terminal extension of the two chains", "notes": "extension appended at the N-terminus; its Cys reacts with the Cy3 bis-maleimide; human N-WASP VCA, residues 432-505, mutated in the V-region; Covalent dimer; same design as m1; also called V* mutant; source: E. coli BL21(DE3) T1R, purified (DEAE, Glutathione Sepharose, TEV cleavage, SOURCE 15Q, Superdex 200); not shown: GST, N-terminal, cleaved"}, "B4": {"name": "Cy3-diVCA-A* (Δ486–488) (domain or fragment)", "chain": "CGGSGGSGGSGGSSGRDALLDQIRQGIQLKSVADGQESTPPTPAPTSGIVGALMEVMQKRSKAIHSSEDEDDEEDFEDDDEWED", "modifications": "Cy3 bis-maleimide (BMCy3) crosslinks the single Cys of the N-terminal extension of the two chains", "notes": "extension appended at the N-terminus; its Cys reacts with the Cy3 bis-maleimide; human N-WASP VCA, residues 432-505, three-residue deletion in the A-region; Covalent dimer; same design as m1; also called A* mutant; source: E. coli BL21(DE3) T1R, purified (DEAE, Glutathione Sepharose, TEV cleavage, SOURCE 15Q, Superdex 200); not shown: GST, N-terminal, cleaved"}}, "data": [{"target": "Rabbit muscle actin (monomeric) (rabbit, UniProt P68135 1-377)", "assay": "fluorescence polarisation; fluorescence anisotropy competition: 20 nM VCA-AF488 with rabbit muscle actin (150 nM in the legend, 200 nM in the methods) and increasing Cy3-diVCA construct; fit to a competition binding isotherm; 10 mM imidazole pH 7.0, 50 mM KCl, 1 mM EGTA, 1 mM MgCl2, 0.5 mM DTT, 0.1 mM ATP; room temperature", "details": "both partners purified", "units": {"Kd": "nM"}, "values": [{"binder": "B1", "Kd": 340}, {"binder": "B2", "Kd": 260}, {"binder": "B3", "Kd": 660}, {"binder": "B4", "Kd": 250}]}]}
